Where no end group is shown, it is not given here.

Here are results for 4 molecules from patent publication US20230357429A1 (JANUX THERAPEUTICS, published 2023).

Experiment [1] addresses T1, Human TROP2 ECD (31-274 AA), biotinylated (human, UniProt P09758 31-274, biotinylated (site not stated)).
T1 construct: also called tumor-associated calcium signal transducer 2; Human TROP2-biotin
T1 sequence: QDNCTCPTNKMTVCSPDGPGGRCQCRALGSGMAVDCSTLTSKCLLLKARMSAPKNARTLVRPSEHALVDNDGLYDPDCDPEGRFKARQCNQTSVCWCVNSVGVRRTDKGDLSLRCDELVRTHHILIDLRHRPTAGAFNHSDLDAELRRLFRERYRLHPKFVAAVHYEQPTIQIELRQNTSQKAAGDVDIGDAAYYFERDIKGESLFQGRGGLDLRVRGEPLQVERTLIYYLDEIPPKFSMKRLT
Briefly: ELISA on immobilized TROP2.

In experiment [2] the target is T2, Human TROP2 ECD (31-274 AA), biotinylated (human, UniProt P09758 31-274, biotinylated (site not stated)).
T2 construct: also called TROP2-biotin; Trop2-biotin
T2 sequence: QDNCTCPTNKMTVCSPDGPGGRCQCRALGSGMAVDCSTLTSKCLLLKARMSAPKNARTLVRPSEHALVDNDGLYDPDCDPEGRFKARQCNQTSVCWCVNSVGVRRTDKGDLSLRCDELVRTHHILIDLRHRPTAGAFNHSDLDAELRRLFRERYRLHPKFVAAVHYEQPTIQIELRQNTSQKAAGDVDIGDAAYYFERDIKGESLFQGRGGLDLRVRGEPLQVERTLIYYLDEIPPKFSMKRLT
Put plainly: ELISA, captured biotin-TROP2.

The target in experiment [3] is T3, CD3 (biotinylated CD3 antigen) (human, UniProt P07766 23-126, limits assumed, biotinylated (site not stated)).
T3 construct: also called CD3ε; human CD3
T3 sequence (P07766 23-126 limits assumed): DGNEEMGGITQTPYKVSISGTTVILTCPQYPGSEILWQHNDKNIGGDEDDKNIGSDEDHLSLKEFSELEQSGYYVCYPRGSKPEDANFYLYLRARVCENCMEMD
Briefly: ELISA, captured biotin-CD3.

Experiment [4] concerns the target T1, Human TROP2 ECD (31-274 AA), …. Briefly: ELISA on immobilized TROP2; binder pre-treated with MTSP1.
The target in another experiment is T4, Peptide-77 (cysteine pairing not given here; also: biotinylated, site not given here).
T4 construct: mask peptide for the CD3 scFv
T4 peptide: YLCGPDTDETLACY
Put plainly: ELISA, TCE on captured biotin-peptide.

The target of the next experiment is T5, Peptide-76 (cysteine pairing not given here; also: biotinylated, site not given here).
T5 construct: mask peptide for the CD3 scFv
T5 peptide: YLCGPDADETLACY
Put plainly: ELISA, TCE on captured biotin-peptide.

The next experiment addresses T6, Peptide-70 (cysteine pairing not given here; also: biotinylated, site not given here).
T6 construct: mask peptide for the CD3 scFv
T6 peptide: YLCGPDGDETLACY
Put plainly: ELISA, TCE on captured biotin-peptide.

The next experiment has as its target T7, Peptide-73 (cysteine pairing not given here; also: biotinylated, site not given here).
T7 construct: mask peptide for the CD3 scFv
T7 peptide: VYCGPEFDESVGCA
Briefly: ELISA, TCE on captured biotin-peptide.

Experiment [5] deals with T2, Human TROP2 ECD (31-274 AA), …. Briefly: ELISA, captured biotin-TROP2. The source holds these as a separate data set.

B1: PC-1 (bispecific antibody)
light: GGVDFCKIYSWPVCHQGGGGSGGLSGRSDAGSPLGLAGSGGSDIQLTQSPSSLSASVGDRVSITCKASQDVSIAVAWYQQKPGKAPKLLIYSASYRYTGVPDRFSGSGSGTDFTLTISSLQPEDFAVYYCQQHYITPLTFGAGTKVEIKRTVAAPSVFIFPPSDEQLKSGTASVVCLLNNFYPREAKVQWKVDNALQSGNSQESVTEQDSKDSTYSLSSTLTLSKADYEKHKVYACEVTHQGLSSPVTKSFNRGEC
heavy: not shown
notes: anti-TROP2 wt
Turning to B1, the concentration giving a half-maximal response (EC50) in experiment [1] stood at 49.4 nM.

B2: PC-31 (anti-TROP2 D109A; anti-CD3 F104A), masked polypeptide complex (bispecific antibody)
light: GGVDFCGLYHWPICYQGGGGSGGLSGRSDAGSPLGLAGSGGSDIQLTQSPSSLSASVGDRVSITCKASQDVSIAVAWYQQKPGKAPKLLIYSASYRYTGVPDRFSGSGSGTDFTLTISSLQPEDFAVYYCQQHYITPLTFGAGTKVEIKRTVAAPSVFIFPPSDEQLKSGTASVVCLLNNFYPREAKVQWKVDNALQSGNSQESVTEQDSKDSTYSLSSTLTLSKADYEKHKVYACEVTHQGLSSPVTKSFNRGEC
heavy: not shown
notes: LC: TROP2 mask peptide + cleavable linker + anti-TROP2 LC; HC: anti-albumin single domain + CD3 mask peptide + cleavable linker + anti-CD3 scFv + anti-TROP2 Fab HC
Consider B2, for which the EC50 in [2] came out at 694 nM; in [3] it was 1080 nM.

B3: PC-1 + MTSP1 (bispecific antibody)
light: DIQLTQSPSSLSASVGDRVSITCKASQDVSIAVAWYQQKPGKAPKLLIYSASYRYTGVPDRFSGSGSGTDFTLTISSLQPEDFAVYYCQQHYITPLTFGAGTKVEIKRTVAAPSVFIFPPSDEQLKSGTASVVCLLNNFYPREAKVQWKVDNALQSGNSQESVTEQDSKDSTYSLSSTLTLSKADYEKHKVYACEVTHQGLSSPVTKSFNRGEC
chain: not shown
modifications: Protease-treated product: both masks and the anti-albumin domain are cut off in the cleavable linkers.
notes: not shown: The few linker residues left at the N-terminus of each chain after the MTSP1 cut
For B3, in experiment [4], the concentration giving a half-maximal response (EC50) stood at 0.48 nM.

B4: TCE-39 (anti-CD3 scFv P41S, A49G, N87S, L150F, T151S, G163R, P175A, K181T, T200V, A202D, L208I, G211N, L217I, S218T, V220A, P222A, E223D, A226S, E227D; … (bispecific antibody)
light: DIQLTQSPSSLSASVGDRVSITCKASQDVSIAVAWYQQKPGKAPKLLIYSASYRYTGVPDRFSGSGSGTDFTLTISSLQPEDFAVYYCQQHYITPLTFGAGTKVEIKRTVAAPSVFIFPPSDEQLKSGTASVVCLLNNFYPREAKVQWKVDNALQSGNSQESVTEQDSKDSTYSLSSTLTLSKADYEKHKVYACEVTHQGLSSPVTKSFNRGEC
heavy: EVQLVESGGGLVQPGGSLKLSCAASGFTFNKYAMNWVRQASGKGLEWVGRIRSKYNNYATYYADSVKDRFTISRDDSKNTAYLQMNSLKTEDTAVYYCVRHGNFGNSYISYWAYWGQGTLVTVSSGGGGSGGGGSGGGGSQTVVTQEPSFSVSPGGTVTLTCRSSTGAVTSGNYANWVQQTPGQAPRGLIGGTKFLAPGVPDRFSGSILGNKAALTITGAQADDESDYYCVLWYSNRWVFGGGTKLTVLGGGGSQVQLQQSGSELKKPGASVKVSCKASGYTFTNYGMNWVKQAPGQGLKWMGWINTYTGEPTYTDDFKGRFAFSLDTSVSTAYLQISSLKADDTAVYFCARGGFGSSYWYADVWGQGSLVTVSSASTKGPSVFPLAPSSKSTSGGTAALGCLVKDYFPEPVTVSWNSGALTSGVHTFPAVLQSSGLYSLSSVVTVPSSSLGTQTYICNVNHKPSNTKVDKKVEPKSC
notes: scFv on the Fab heavy chain
In the case of B4, the half-maximal effective concentration (EC50) with Peptide-77 amounted to 18.8 nM; in the experiment with Peptide-76 it was 1.39 nM; with Peptide-70, 0.33 nM; in the experiment with Peptide-73, 0.41 nM; in experiment [5], 5.92 nM.
